# Experimental data: PMC4543939
# Target: Cer-PLN-AFA and YFP-PLN-AFA: canine phospholamban AFA mutant fused at its N-terminus with mCerulean or enhanced YFP (canine) (UniProt P61012)
# Test: FRET or BRET; in-cell binding assay, acceptor sensitization FRET in living AAV-293 cells co-transfected with Cer-PLN-AFA and YFP-PLN-AFA (1:5); FRET against relative protein concentration cell by cell, hyperbolic fit; apparent KD1 of the PLN-PLN oligomer; with or without 1 uM 50-mer ssDNA
# Sequence of Cer-PLN-AFA and YFP-PLN-AFA: canine phospholamban AFA mutant fused at its N-terminus with mCerulean or enhanced YFP (P61012 whole entry, change not shown, the tested form may be a part): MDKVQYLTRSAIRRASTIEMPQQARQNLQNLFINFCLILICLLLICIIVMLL
substance,measurement,value
Cer-PLN-AFA and YFP-PLN-AFA: canine phospholamban AFA mutant fused at its N-terminus with mCerulean or enhanced YFP (from UniProt P61012 1-52) (natural protein),increase in PLN oligomerization with 50-mer ssDNA against no ssDNA,20%
